Here are results for three molecules from US20170313764A1 (ACADEMISCH MEDISCH CENTRUM, published 2017).

For experiment [1], the target named is E1E2 of HCV isolate H77 with single mutation L413A (Hepatitis C virus genotype 1a, strain …, UniProt P27958 192-383; P27958 384-746). As to the kind of experiment: ELISA, GNA-captured E1E2 lysate; EC50 wild type / EC50 mutant.
The target of experiment [2] is E1E2 of HCV isolate H77 with single mutation G418A (Hepatitis C virus genotype 1a, strain …, UniProt P27958 192-383; P27958 384-746). The experiment is described as above.
For experiment [3], the target named is E1E2 of HCV isolate H77 with single mutation W420A (Hepatitis C virus genotype 1a, strain …, UniProt P27958 192-383; P27958 384-746). Described as above.
In experiment [4] the target is E1E2 of HCV isolate AMS.2b.20876551.kloon21 (genotype 2b) (Hepatitis C virus genotype 2b). As to the kind of experiment: cell-based or functional assay.
The target of experiment [5] is E1E2 of HCV isolate UKN4.11.1 (genotype 4) (Hepatitis C virus genotype 4). As to the kind of experiment: cell-based or functional assay.
The target in experiment [6] is E1E2 of HCV isolate H77 (genotype 1a), wild type (Hepatitis C virus genotype 1a, strain …, UniProt P27958 192-383; P27958 384-746). As to the kind of experiment: cell-based or functional assay.
Experiment [7] deals with E1E2 of HCV isolate AMS.3a.21071213 (genotype 3a) (Hepatitis C virus genotype 3a). As to the kind of experiment: cell-based or functional assay.
The target in experiment [8] is E1E2 of HCV isolate AMS.1b.20877857 (genotype 1b) (Hepatitis C virus genotype 1b). As to the kind of experiment: cell-based or functional assay.
In experiment [9] the target is E1E2 of HCV isolate AMS.4d.20875969 (genotype 4d) (Hepatitis C virus genotype 4d). As to the kind of experiment: cell-based or functional assay.
Experiment [10] addresses E1E2 of HCV isolate H77 with single mutation S424A (Hepatitis C virus genotype 1a, strain …, UniProt P27958 192-383; P27958 384-746). As to the kind of experiment: ELISA, GNA-captured E1E2 lysate; EC50 wild type / EC50 mutant. For orientation: ELISA stands for enzyme-linked immunosorbent assay.
Experiment [11] deals with E1E2 of HCV isolate H77 with single mutation D535A (Hepatitis C virus genotype 1a, strain …, UniProt P27958 192-383; P27958 384-746). The experiment is described as above.
In experiment [12] the target is E1E2 of HCV isolate H77 with single mutation G530A (Hepatitis C virus genotype 1a, strain …, UniProt P27958 192-383; P27958 384-746). Described as above.
The target in experiment [13] is E1E2 of HCV isolate H77 with single mutation G436A (Hepatitis C virus genotype 1a, strain …, UniProt P27958 192-383; P27958 384-746). Described as above.
The target in experiment [14] is E1E2 of HCV isolate H77 with single mutation D698A (Hepatitis C virus genotype 1a, strain …, UniProt P27958 192-383; P27958 384-746). Described as above.
For experiment [15], the target named is E1E2 of HCV isolate H77 with single mutation Y443A (Hepatitis C virus genotype 1a, strain …, UniProt P27958 192-383; P27958 384-746). Described as above.
Experiment [16] concerns the target E1E2 of HCV isolate H77 with single mutation T526A (Hepatitis C virus genotype 1a, strain …, UniProt P27958 192-383; P27958 384-746). The description is as above.
Experiment [17] deals with E1E2 of HCV isolate H77 with single mutation T435A (Hepatitis C virus genotype 1a, strain …, UniProt P27958 192-383; P27958 384-746). The description is as above.
In experiment [18] the target is E1E2 of HCV isolate H77 with single mutation Y527A (Hepatitis C virus genotype 1a, strain …, UniProt P27958 192-383; P27958 384-746). The description is as above.
The target in experiment [19] is E1E2 of HCV isolate H77 with single mutation A439G (Hepatitis C virus genotype 1a, strain …, UniProt P27958 192-383; P27958 384-746). The experiment is described as above.
Experiment [20] concerns the target E1E2 of HCV isolate H77 with single mutation W529A (Hepatitis C virus genotype 1a, strain …, UniProt P27958 192-383; P27958 384-746). Described as above.
Experiment [21] concerns the target E1E2 of HCV isolate H77 with single mutation Y485A (Hepatitis C virus genotype 1a, strain …, UniProt P27958 192-383; P27958 384-746). The description is as above.
In experiment [22] the target is E1E2 of HCV isolate H77 with single mutation W616A (Hepatitis C virus genotype 1a, strain …, UniProt P27958 192-383; P27958 384-746). Described as above.
Experiment [23] deals with E1E2 of HCV isolate H77 with single mutation N415A (Hepatitis C virus genotype 1a, strain …, UniProt P27958 192-383; P27958 384-746). Described as above.
For experiment [24], the target named is E1E2 of HCV isolate H77 with single mutation R657A (Hepatitis C virus genotype 1a, strain …, UniProt P27958 192-383; P27958 384-746). The experiment is described as above.
Experiment [25] concerns the target T1, soluble E2-his6-sortase tag from HCV isolate AMS.2b.20876551.kloon21 (genotype 2b) (Hepatitis C virus genotype 2b).
T1 chain: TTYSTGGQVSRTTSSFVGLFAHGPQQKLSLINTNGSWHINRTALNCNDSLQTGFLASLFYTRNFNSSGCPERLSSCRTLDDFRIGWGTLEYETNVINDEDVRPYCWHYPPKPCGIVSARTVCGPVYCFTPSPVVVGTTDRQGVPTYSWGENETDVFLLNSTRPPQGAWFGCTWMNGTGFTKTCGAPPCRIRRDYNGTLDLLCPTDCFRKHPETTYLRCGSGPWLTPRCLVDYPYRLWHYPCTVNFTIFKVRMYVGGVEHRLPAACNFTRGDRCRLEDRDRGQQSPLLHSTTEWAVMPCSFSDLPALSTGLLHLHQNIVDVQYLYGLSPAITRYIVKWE
As to the kind of experiment: SPR (IBIS MX96), antibody spotted on chip, soluble E2-his as analyte.

The target in experiment [26] is T2, soluble E2-his6-sortase tag from HCV isolate H77 (genotype 1a) (Hepatitis C virus genotype 1a, strain …, UniProt P27958 384-717).
T2 construct: also called E2-his6-ST; E2 genotype 1a
Described as above.

Experiment [27] concerns the target T3, HCV E1E2 protein in transfected 293T cells (CD81 competition assay; isolate not stated).
T3 construct: also called E1E2 transfected cells
As to the kind of experiment: flow cytometry competition: E1E2-transfected 293T cells pre-incubated with antibody, then CD81-LEL (mouse Fc) added and detected; blocked ligand CD81-LEL. A general note: A flow cytometer gives signals particle by particle.

B1: AT13-021 (antibody, V domains shown)
VH: QVQLVQSGAEVKKPGSSVKVSCKASGGTFNTHAFSWVRQAPGEGLEWMGGISPMSGTPNYAQKFQGRLTITADESTSTGYMELRSLTSEDTAVYYCARELIGYCTGGNCYSFGDFWGQGTLITVSS
VL: EIVMTQSPATLSVSPGERATLSCRASQSVSSHLAWYQHKPGQAPRLLISGASTRAVGVPARFSGSGSGTEFTLTISSLQSEDFAVYYCHQYNTWPRGFGQGTKVDFKR
Usually Kd stands for the concentration at which binding is half-saturated. Lower therefore signals tighter binding. As a reminder, the koff is the rate constant with which the complex falls apart. Turning to B1, the “relative binding, mutant vs wild type” value is 185% in experiment [1]; 131% in experiment [2]; 103% in experiment [3]; 17% in [10]; less than 10% in experiment [11]; less than 10% in experiment [12]. Moreover, the “relative binding, mutant vs wild type” value in [13] was less than 10%; in experiment [14], 80%; in experiment [15], 87%; in experiment [16], 27%; in experiment [17], 21%; in experiment [18], 21%. Also, the “relative binding, mutant vs wild type” value in [19] is 53%; in experiment [20], 13%; in experiment [21] it was 114%; in experiment [22] it was less than 10%; in [23], 119%; in [24], 88%. Further, the “IC50, HCVpp neutralization” value in experiment [4] was found to be 0.12 µg/mL; in experiment [5], 0.94 µg/mL; in [6] it was 0.3 µg/mL; in experiment [7], 0.25 µg/mL; in experiment [8] it was 0.09 µg/mL; in [9], 0.94 µg/mL. The “IC90, HCVpp neutralization” value in experiment [4] is 8.84 µg/mL; in experiment [5], 13.9 µg/mL; in experiment [6] it was 9.98 µg/mL; in [7], 12.3 µg/mL; in [8], 5.67 µg/mL; in experiment [9], more than 50 µg/mL. The dissociation constant Kd in experiment [25] was 2 nM; in experiment [26] it was 14.2 nM. Also, the koff in [25] amounted to 0.0001 s⁻¹; in experiment [26] it was 0.00036 s⁻¹.

B2: AT12-009 (antibody, V domains shown)
VH: SSVRVSCKASGDTFKTHAISWVRQAPGQGLEWVGGTVRQAPGDGLELLGGFVPILAPANDAQKFQGRVTITADGSTGPVYMDLSTLTSEDTAMYYCVTSLSEPIPRSCRGGRCYSGPFDAFGVWGQGTMVTVSS
VL: ETMLTQSPVTLSVSPGERATLSCRASQSIGTNLAWYQQKPGQAPRLLIHGASTRATGVPVSFSGSGSGTEFTLTISSLQSEDFAVYYCQQYNNWPLTFGGGTKVDFKR
For B2, the “IC50, HCVpp neutralization” value in [4] came to 0.06 µg/mL; in experiment [5], 0.19 µg/mL; in experiment [7], 0.14 µg/mL; in [8] it was 0.001 µg/mL; in experiment [9], 0.72 µg/mL. Besides, the “IC90, HCVpp neutralization” value in experiment [4] stood at 6.17 µg/mL; in experiment [5], 14.1 µg/mL; in experiment [7], 5.34 µg/mL; in [8], 0.13 µg/mL; in experiment [9], 47.4 µg/mL. This molecule showed a Kd in experiment [25] of 2.3 nM. The koff in experiment [25] was 0.0002 s⁻¹. In addition, the “IC50 (read off the curve)” value in [27] was approximately 2 µg/mL.

B3: AT12-011 (antibody, V domains shown)
VH: QVQLVQSGAEVKKPGSSVKVSCKASGGTFSGYGITWVRQAPGQGLEWMGTIIPVSATETYAQRLQGRVTISADEHSTTSYMEVSSLKSEDTALYYCARHDYFWGTPLDIWGQGTMVIVSS
VL: EIVLTQSPDFQSVTPKEKVTITCRASQSIGSNLHWYQQKPGQSPKLLIKYASQSFSGVPSRFSGSGSGTDFTLTINSLEAEDAATYFCHQSYNLPRTFGGGTKVEIKR
For the molecule B3, the “IC50, HCVpp neutralization” value in experiment [4] is 27.5 µg/mL; in [5], more than 50 µg/mL; in experiment [7], more than 50 µg/mL; in experiment [8], 4.31 µg/mL; in experiment [9], more than 50 µg/mL. For the same molecule, the “IC90, HCVpp neutralization” value in [4], in [5], in [7], in [8] and in [9] was more than 50 µg/mL each time. Further, the figures for the Kd in experiment [25] and in experiment [26] were 0.2 nM and 0.3 nM, respectively.
